Measured values from EP4700044A1, “PROTEIN ANALOGUE AND USE THEREOF” (Shanghai Duomirui Biotechnology., Ltd., priority 2023, dated 2024).

Columns and labels:
[1] = target: T1, FGFR1c and the cofactor β-Klotho (Homo sapiens, UniProt P11362+Q86Z14); test: dual-luciferase reporter gene assay in iLite FGF21 assay ready cells; format: cell-based
T1 construct: host or cells: iLite FGF21 assay ready cells (genetically engineered reporter gene cell line)
From the text: iLite FGF21 assay ready cells (purchased from SAVR) is a genetically engineered reporter gene cell line that responds to signals downstream to FGF21 agonism through the expression of firefly luciferase. The receptor FGFR1c and the cofactor β-Klotho were co-overexpressed on the surface of iLite FGF21 assay ready cells and have undergone genetic optimization to enhance sensitivity, such that FGF21 will cause an increase in luciferase expression in a dose-response manner. The luciferase activity detection kit was purchased from Promega (catalog number #E2980).
iLite FGF21 assay ready cells were cultured adherently in basal medium (DMEM Gluta Max, purchased from Gibco) containing 10% fetal bovine serum (FBS, purchased from Gibco) and 1% penicillin/streptomycin (purchased from Gibco). For the activity determination experiment, […] cells per well and test samples such as FGF21 mutant proteins and FGF21 conjugate molecules modified with albumin-binding agent were added to all-white 96-well culture plates (purchased from Corning), and the chemiluminescence values were detected in a microplate reader according to the instructions of the luciferase activity detection kit. Finally, the half-maximal effective concentration (EC50) values of the tested samples were obtained by means of four-parameter fitting.

[2] = pharmacokinetic test in minipigs; format: in vivo; conditions: 1 mg/kg, subcutaneous injection, plasma, human FGF21 ELISA
Protocol: (§1) The pharmacokinetic properties of protein analogs can be tested in mice or minpigs.
(§2) Minipig experiment (N = 3): The injection dose was 1 mg/kg, and the injection method was subcutaneous injection. The blood-collection time points for plasma samples were 0.083, 0.25, 0.5, 1, 2, 4, 6, 8, 12, 24, 48, 72, 96, 120, 144, 168, 192, 216, 240, 264, 288 h. The blood was collected into EDTA·2K-coated test tubes (which must be temporarily stored on ice) and centrifuged at 1200 × g for 10 minutes at 4°C. Subsequently, the plasma was transferred to Micronic tubes and stored at -20°C. The human FGF21 detection ELISA kit (CAT: RD191108200R) produced by Biovendor was used to monitor the blood drug concentration.

[3] = test system: high-fat diet-induced db/db mice; test: pharmacodynamic test in db/db mice induced by high-fat diet (NASH model); format: in vivo; conditions: subcutaneous injection once every three days, 6 weeks, liver sections, hematoxylin-eosin staining
From the text: Establishment of a db/db mouse model induced by high-fat diet: Male db/db mice, 8 weeks old, were adaptively fed with a standard diet for 2-3 days, after which all feed was replaced with 60% high-fat feed for rearing. After 3 weeks of high-fat feed feeding, the NASH model could be obtained. Administration: N = 6, subcutaneous injection of Vehicle and protein analogues (5 or 20 nmol/kg) was given once every three days, with an administration period of 6 weeks.
At the end of the administration, liver tissue sections were taken for hematoxylin-eosin staining to detect the effect of protein analogs on the non-alcoholic fatty liver disease activity score (NAS score) in high-fat diet-induced db/db mice.

[4] = pharmacokinetic test in mice; format: in vivo; conditions: 1 mg/kg, subcutaneous injection, plasma, human FGF21 ELISA
Protocol: as §1
as §2, with “Mice” for “Minipig”, “0.08,” for “0.083,”, “and 72 hours.” for “72, 96, 120, 144, 168, 192, 216, 240, 264, 288 h.”, “(RD191108200R)” for “(CAT: RD191108200R)”

[5] = Example 13, four-parameter fitting
[6] = Example 6, four-parameter fitting

T1 sequence (P11362 22-822): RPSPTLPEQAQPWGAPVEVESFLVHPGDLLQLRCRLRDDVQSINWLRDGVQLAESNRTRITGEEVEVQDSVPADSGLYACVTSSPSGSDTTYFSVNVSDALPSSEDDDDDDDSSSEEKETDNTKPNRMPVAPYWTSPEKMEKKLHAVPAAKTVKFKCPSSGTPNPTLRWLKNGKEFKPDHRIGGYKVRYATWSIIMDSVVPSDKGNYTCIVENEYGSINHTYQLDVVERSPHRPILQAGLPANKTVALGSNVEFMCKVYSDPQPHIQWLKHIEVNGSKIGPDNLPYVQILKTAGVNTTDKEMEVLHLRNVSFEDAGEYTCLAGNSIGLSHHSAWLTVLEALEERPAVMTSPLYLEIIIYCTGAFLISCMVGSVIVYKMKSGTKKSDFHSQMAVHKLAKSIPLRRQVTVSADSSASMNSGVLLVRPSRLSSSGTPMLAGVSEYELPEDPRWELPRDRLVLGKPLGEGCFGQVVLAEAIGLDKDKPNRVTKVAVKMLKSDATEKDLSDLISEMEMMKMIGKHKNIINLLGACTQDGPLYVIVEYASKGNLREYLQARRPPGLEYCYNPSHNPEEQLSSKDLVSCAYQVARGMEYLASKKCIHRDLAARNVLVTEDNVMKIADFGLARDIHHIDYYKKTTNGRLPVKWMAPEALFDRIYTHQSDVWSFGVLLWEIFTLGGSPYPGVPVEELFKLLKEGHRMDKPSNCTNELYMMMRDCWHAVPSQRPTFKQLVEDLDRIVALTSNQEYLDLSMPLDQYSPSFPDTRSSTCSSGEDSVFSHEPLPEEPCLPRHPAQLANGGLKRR
T1 sequence (Q86Z14 whole entry): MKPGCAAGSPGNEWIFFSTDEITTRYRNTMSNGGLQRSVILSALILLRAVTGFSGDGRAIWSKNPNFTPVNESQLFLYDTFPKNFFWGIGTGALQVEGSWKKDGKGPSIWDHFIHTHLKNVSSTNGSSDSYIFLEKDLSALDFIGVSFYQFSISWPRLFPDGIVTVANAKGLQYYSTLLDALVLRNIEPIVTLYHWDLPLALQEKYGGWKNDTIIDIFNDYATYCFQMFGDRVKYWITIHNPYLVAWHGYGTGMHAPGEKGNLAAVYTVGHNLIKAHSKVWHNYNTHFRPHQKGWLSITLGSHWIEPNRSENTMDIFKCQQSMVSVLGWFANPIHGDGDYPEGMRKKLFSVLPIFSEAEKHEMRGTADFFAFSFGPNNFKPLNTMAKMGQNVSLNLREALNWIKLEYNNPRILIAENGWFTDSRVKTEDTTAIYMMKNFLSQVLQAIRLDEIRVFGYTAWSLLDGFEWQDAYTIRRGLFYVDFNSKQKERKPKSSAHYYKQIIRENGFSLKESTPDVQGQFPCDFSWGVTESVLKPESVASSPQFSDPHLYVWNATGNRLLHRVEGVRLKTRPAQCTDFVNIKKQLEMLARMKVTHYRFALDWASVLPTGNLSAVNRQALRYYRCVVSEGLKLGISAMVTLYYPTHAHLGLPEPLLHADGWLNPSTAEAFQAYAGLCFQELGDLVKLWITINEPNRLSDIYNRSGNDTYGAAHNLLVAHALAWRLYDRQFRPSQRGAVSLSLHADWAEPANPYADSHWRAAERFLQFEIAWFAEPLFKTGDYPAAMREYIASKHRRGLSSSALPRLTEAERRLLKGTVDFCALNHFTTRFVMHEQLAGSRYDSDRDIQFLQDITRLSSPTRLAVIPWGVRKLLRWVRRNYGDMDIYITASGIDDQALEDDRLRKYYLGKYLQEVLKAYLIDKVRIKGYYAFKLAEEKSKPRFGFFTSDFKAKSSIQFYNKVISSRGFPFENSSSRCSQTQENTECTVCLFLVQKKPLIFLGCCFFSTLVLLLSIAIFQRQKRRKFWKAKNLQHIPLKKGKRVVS

Molecule	EC50 [1, 5]	half-life [2]	NAS score ([3]; 5 nmol/kg)	NAS score ([3]; 20 nmol/kg)	EC50 [1, 6]	half-life [4]
Compound 12.4: Fatty acid-modified PAS-FGF21 dimer: PAS100FGF21 (SEQ ID NO: 16) modified by the side chain of Example 8.5 (conjugate, dimer; fatty acid side chain of Example 8.5) SPCASPAAPAPASPAAPAPSAPAAASAAAPAAASAAASAPSAASAAASPAAPSAPPAAASPAAPSAPPAAASPAAPAPASPAASAPSAPAAASPAAPAPASHPIPDSSPLLQFGGQVRQRYLYTDDAQQTEAHLEIREDGTVGGAADQSPESLLQLKALKPGVIQILGVKTSRFLCQRPDGALYGSLHFDPEACSFRERLLEDGYNVYQSEAHGLPLHLPGNKSPHRDPAPRGPARFLPLPGLPPAPPEPPGILAPQPPDVGSSDPLSMVGGSQGRSPSYES	0.11 nM	75.4 ± 9.4 h				
Compound 12.1: Fatty acid-modified PAS-FGF21 dimer: PAS15FGF21 (SEQ ID NO: 13) modified by the side chain of Example 8.5 (conjugate, dimer; fatty acid side chain of Example 8.5) SPCASPAAPAPASPAAHPIPDSSPLLQFGGQVRQRYLYTDDAQQTEAHLEIREDGTVGGAADQSPESLLQLKALKPGVIQILGVKTSRFLCQRPDGALYGSLHFDPEACSFRERLLEDGYNVYQSEAHGLPLHLPGNKSPHRDPAPRGPARFLPLPGLPPAPPEPPGILAPQPPDVGSSDPLSMVGGSQGRSPSYES	0.09 nM		3.83 ± 0.98	3.33 ± 0.82		
Compound 12.6: Fatty acid-modified PAS-FGF21 dimer: PAS200FGF21 (SEQ ID NO: 17) as printed, modified by the side chain of Example 8.6 (conjugate, dimer; fatty acid side chain of Example 8.6) SPCASPAAPAPASPAAPAPSAPAAASAAAPAAASAAASAPSAASAAASPAAPSAPPAAASPAAPSAPPAAASPAAPAPASPAASAPSAPAAASPAAPAPASPAAPAPSAPAAASAAAPAAASAAASAPSASAAASAAAPAAASAAASAPSAASSAASPAAPSAPPAAASPAAPSAPPAAASPAAPAPASPAAPAPSAPAAAHPIPDSSPLLQFGGQVRQRYLYTDDAQQTEAHLEIREDGTVGGAADQSPESLLQLKALKPGVIQILGVKTSRFLCQRPDGALYGSLHFDPEACSFRERLLEDGYNVYQSEAHGLPLHLPGNKSPHRDPAPRGPARFLPLPGLPPAPPEPPGILAPQPPDVGSSDPLSMVGGSQGRSPSYES		61.3 ± 1.1 h				
Compound 5.7: FGF21D46C mutant (SEQ NO: 7) modified by the albumin-binding agent of Example 2.2 (conjugate, albumin-binding agent conjugated) HPIPDSSPLLQFGGQVRQRYLYTDDAQQTEAHLEIREDGTVGGAACQSPESLLQLKALKPGVIQILGVKTSRFLCQRPDGALYGSLHFDPEACSFRERLLEDGYNVYQSEAHGLPLHLPGNKSPHRDPAPRGPARFLPLPGLPPAPPEPPGILAPQPPDVGSSDPLSMVGGSQGRSPSYES					1.06 nM	15.9 h
Compound 5.15: FGF21H125C mutant (SEQ NO: 9) modified by the albumin-binding agent of Example 2.4 (conjugate, albumin-binding agent of Example 2.4) HPIPDSSPLLQFGGQVRQRYLYTDDAQQTEAHLEIREDGTVGGAADQSPESLLQLKALKPGVIQILGVKTSRFLCQRPDGALYGSLHFDPEACSFRERLLEDGYNVYQSEAHGLPLHLPGNKSPCRDPAPRGPARFLPLPGLPPAPPEPPGILAPQPPDVGSSDPLSMVGGSQGRSPSYES					0.47 nM	14.1 h
Compound 12.2: Fatty acid-modified PAS-FGF21 dimer: PAS30FGF21 (SEQ ID NO: 14) modified by the side chain of Example 8.5 (conjugate, dimer; fatty acid side chain of Example 8.5) SPCASPAAPAPASPAAPAPSAPAAASAAAPAHPIPDSSPLLQFGGQVRQRYLYTDDAQQTEAHLEIREDGTVGGAADQSPESLLQLKALKPGVIQILGVKTSRFLCQRPDGALYGSLHFDPEACSFRERLLEDGYNVYQSEAHGLPLHLPGNKSPHRDPAPRGPARFLPLPGLPPAPPEPPGILAPQPPDVGSSDPLSMVGGSQGRSPSYES	0.13 nM	65.9 ± 3.8 h	4.33 ± 1.03	3.40 ± 1.14		
Compound 12.3: Fatty acid-modified PAS-FGF21 dimer: PAS50FGF21 (SEQ ID NO: 15) modified by the side chain of Example 8.5 (conjugate, dimer; fatty acid side chain of Example 8.5) SPCASPAAPAPASPAAPAPSAPAAASAAAPAAASAAASAPSAASAAASPAAHPIPDSSPLLQFGGQVRQRYLYTDDAQQTEAHLEIREDGTVGGAADQSPESLLQLKALKPGVIQILGVKTSRFLCQRPDGALYGSLHFDPEACSFRERLLEDGYNVYQSEAHGLPLHLPGNKSPHRDPAPRGPARFLPLPGLPPAPPEPPGILAPQPPDVGSSDPLSMVGGSQGRSPSYES	0.11 nM		4.33 ± 1.37	3.00 ± 0.89		
